# Reference: patent publication US20050095615
# Molecular target: His6/LUMIO tag/MBP protein expressed from pET160-GW/MBP [MBP: P0AEX9]
protein,measurement,value
TEV protease (protein) GESLFKGPRDYNPISSTICHLTNESDGHTTSLYGIGFGPFIITNKHLFRRNNGTLLVQSLHGVFKVKNTTTLQQHLIDGRDMIIIRMPKDFPPFPQKLKFREPQREERICLVTTNFQTKSMSSMVSDTSCTFPSSDGIFWKHWIQTKDGQCGSPLVSTRDGFIVGIHSASNFTNTNNYFTSVPKNFMELLTNQEAQQWVSGWRLNADSVLWGGHKVFMSKPEEPFQPVKEATQLMNELVYSQ,cleavage by TEV protease,The TEV protease efficiently cleaves the N-terminal sequences from partially purified protein.
same,digestion with TEV protease analyzed by SDS-PAGE,The results demonstrated that the pET160-DEST vector can encode a functional TEV cleavage site.
